In paper PMC5606096, “High-level expression and characterization of a novel cutinase from Malbranchea cinnamomea suitable for butyl butyrate production” (Biotechnology for Biofuels, 2017):

Assays:
[1] = system: T1, CCCCCC(=O)Oc1ccc([N+](=O)[O-])cc1; test: p-nitrophenol release, Michaelis-Menten fit (GraFit); assay type: biochemical, Malbranchea cinnamomea; details: 50 mM Tris-HCl pH 8.0, 45 °C, 5 min
T1 construct: signal peptide (16 residues) removed, 215-residue precursor; pPIC9K secreted from Pichia pastoris GS115; purified on Q Sepharose; no tag mentioned

[2] = system: T2, CCCC(=O)Oc1ccc([N+](=O)[O-])cc1; test: as above; assay type: biochemical, Malbranchea cinnamomea; details: 50 mM Tris-HCl pH 8.0, 45 °C, 5 min
T2 construct: signal peptide (16 residues) removed, 215-residue precursor; pPIC9K secreted from Pichia pastoris GS115; purified on Q Sepharose; no tag mentioned

McCut (Malbranchea cinnamomea), sequence (chain, as listed by the source): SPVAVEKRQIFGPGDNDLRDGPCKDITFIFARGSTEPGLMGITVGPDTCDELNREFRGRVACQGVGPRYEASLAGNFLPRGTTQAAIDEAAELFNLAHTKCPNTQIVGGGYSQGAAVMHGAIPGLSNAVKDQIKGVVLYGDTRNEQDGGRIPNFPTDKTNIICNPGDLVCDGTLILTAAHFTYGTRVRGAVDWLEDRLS

## McCut (Malbranchea cinnamomea)
[1]
  Km: 270 µM
  kcat: 0.46 s⁻¹
[2]
  Km: 660 µM
  kcat: 0.46 s⁻¹
